Among the data in patent publication US20220347268A1 (MEDICENNA THERAPEUTICS, published 2022) are Kd, kon and koff values, retold here.

T1: IL-13Rα1
T1 construct: also called IL13Ra1
T1 chain: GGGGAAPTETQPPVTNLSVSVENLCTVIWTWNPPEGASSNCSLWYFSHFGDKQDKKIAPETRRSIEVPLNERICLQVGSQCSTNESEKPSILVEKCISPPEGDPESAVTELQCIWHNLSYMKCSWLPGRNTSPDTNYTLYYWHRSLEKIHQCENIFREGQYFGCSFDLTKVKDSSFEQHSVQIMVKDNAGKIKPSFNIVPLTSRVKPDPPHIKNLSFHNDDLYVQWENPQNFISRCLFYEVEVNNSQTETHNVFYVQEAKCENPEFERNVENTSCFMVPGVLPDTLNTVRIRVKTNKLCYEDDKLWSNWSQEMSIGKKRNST

T2: IL-13Rα2
T2 construct: also called IL13Ra2; CD213A2
T2 chain: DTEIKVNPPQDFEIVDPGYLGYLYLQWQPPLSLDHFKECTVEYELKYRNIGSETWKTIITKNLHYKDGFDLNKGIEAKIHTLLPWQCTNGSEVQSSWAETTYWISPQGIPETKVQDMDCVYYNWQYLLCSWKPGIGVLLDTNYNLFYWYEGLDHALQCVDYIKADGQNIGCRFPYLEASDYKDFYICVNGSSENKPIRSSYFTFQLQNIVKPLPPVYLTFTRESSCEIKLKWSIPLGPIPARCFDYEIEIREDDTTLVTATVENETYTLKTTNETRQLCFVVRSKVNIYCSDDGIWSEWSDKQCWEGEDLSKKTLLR

B1: C11 (ligand)
cytokine: PGPVPPSTAHRELIEELVNITQNQKAPLCNGSMVWSINLTAGMYCAALESLINVSGCSAIEKTQRMLSGFCPHKVSAGQFSSLHVTGRKIEVAQFVKDLLLHLKKLFKEGQFN
notes: grouped under 'IL-13Rα2 specific'; also called IL-13 variant C11
B2: A5 (ligand)
cytokine: B1 cytokine with H10L, R11I, V18I, T86K, R88S, L101H, K104R, K105A, F107M, K108R
notes: grouped under 'IL-13Rα1 specific'; also called IL-13 variant A5
B3: B6 (ligand)
cytokine: B1 cytokine with H10T, V18I, T86R, R88S, L101Y, K104R, K105T, K108R
notes: grouped under 'IL-13Rα1 specific'; also called IL-13 variant B6
B4: A7 (ligand)
cytokine: B1 cytokine with H10I, V18I, T86R, R88S, L101H, K104R, K105A, K108R
notes: grouped under 'IL-13Rα1 specific'; also called IL-13 variant A7
B5: A11 (ligand)
cytokine: B1 cytokine with H10V, V18I, T86R, G87S, R88S, L101F, K104R, K105T, K108R
notes: Grouped under 'IL-13Rα1 specific'; also called IL-13 variant A11
B6: A8 (ligand)
cytokine: B1 cytokine with H10I, V18I, T86R, G87S, R88S, K89R, L101H, K104R, K105T, K108R
notes: grouped under 'IL-13Rα1 specific'; also called IL-13 variant A8
B7: B2 (ligand)
cytokine: B1 cytokine with H10L, V18I, R88S, L101Y, K104R, K105A, K108R
notes: grouped under 'IL-13Rα1 specific'; also called IL-13 variant B2
B8: A6 (ligand)
cytokine: B1 cytokine with H10I, V18L, T86M, G87K, R88S, L101H, K104R, K105A, K108R
notes: grouped under 'IL-13Rα1 specific'; also called IL-13 variant A6
B9: B4 (ligand)
cytokine: B1 cytokine with H10L, R11S, V18I, T86K, R88S, K89M, L101Y, K104R, K105T, K108R
notes: grouped under 'IL-13Rα1 specific'; also called IL-13 variant B4
B10: C4 (ligand)
cytokine: B1 cytokine with H10V, T86R, G87D, R88T, K89R, L101N, K105E, K108T
notes: grouped under 'IL-13Rα2 specific'; also called IL-13 variant C4
B11: D7 (ligand)
cytokine: B1 cytokine with H10A, V18F, T86K, G87K, R88T, K89R, L101I, K104R
notes: grouped under 'IL-13Rα2 specific'; also called IL-13 variant D7

Numbering of substitutions follows the chain as printed.

For the first test, the target named is T1, IL-13Rα1. As to the kind of experiment: SPR, column KD (eq).
As a reminder, the Kd is a measure of binding affinity in units of concentration. Take B1: the Kd is 1600 nM.

For the next test, the target named is T1, IL-13Rα1. Briefly: SPR, kinetic (column K1).
For orientation: kon means the rate constant with which the complex forms. In the case of B2, the kon turned out to be 2.8e+06 M⁻¹ s⁻¹.
For B3, the kon came to 1.4e+06 M⁻¹ s⁻¹.
For B4, the kon stood at 2.9e+06 M⁻¹ s⁻¹.
B5: the kon worked out at 1.64e+07 M⁻¹ s⁻¹.
Consider B6, for which the kon came to 1.64e+06 M⁻¹ s⁻¹.
Same read-out and setting: in the case of B7 it was 6.3e+06 M⁻¹ s⁻¹.
Same read-out and setting: in the case of B8 it was 1.77e+06 M⁻¹ s⁻¹; in that of B9, 1.36e+06 M⁻¹ s⁻¹.

The next test concerns the target T2, IL-13Rα2. As to the kind of experiment: SPR, kinetic (column K1).
As to B1, the kon turned out to be 6.41e+06 M⁻¹ s⁻¹.
Same read-out and setting: in the case of B10 it was 1.94e+06 M⁻¹ s⁻¹; in that of B11, 1.77e+07 M⁻¹ s⁻¹.

Another test has as its target T1, IL-13Rα1. Briefly: SPR, kinetic (column K-1).
For orientation: koff means the rate constant with which the complex falls apart. For B2, the dissociation rate constant (koff) is 0.0082 s⁻¹.
On the same count and under the same terms, the same measure for B3: 0.0082 s⁻¹.
Same read-out and setting: in the case of B4 it was 0.0034 s⁻¹; in that of B5, 0.0013 s⁻¹.
On the same count and under the same terms, the same measure for B6: 0.0033 s⁻¹; for B7: 0.0017 s⁻¹.
Take B8: the koff is 0.0033 s⁻¹.
The same measure, in the same setting: the same measure for B9: 0.024 s⁻¹.

For the next test, the target named is T2, IL-13Rα2. As to the kind of experiment: SPR, kinetic (column K-1). Background: SPR reads the build-up and loss of mass on a sensor chip optically.
In turn, B1 returned a dissociation rate constant (koff) of 9.18e-07 s⁻¹.
The molecule B10 came in with an off-rate (koff) of 0.000764 s⁻¹. This koff lies about 830-fold higher than the previous one.
In the case of B11, the dissociation rate constant (koff) is 5.37e-05 s⁻¹.
